Results taken from the supplement of paper PMC10567573.
± gives the standard deviation.

Assay: protein stability index of a GFP-peptide fusion (GPS, HEK-293T) (PSI 1-6); higher = more stable
[1] = treatment: DMSO, c terminus: a fixed tail appended
[2] = treatment: MLN4924 1 uM, 8 h, c terminus: a fixed tail appended
[3] = treatment: DMSO, c terminus: native
[4] = treatment: MLN4924 1 uM, 8 h, c terminus: native
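Note: 24-mer peptide tiles fused after GFP, lentivirally expressed, FACS-sorted into six equal bins by GFP/DsRed ratio, decoded by Illumina sequencing, PSI is the read-weighted mean bin number.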

Sequence	protein stability index [1]	protein stability index [2]	protein stability index [3]	protein stability index [4]
VEGRKHVDVQTELYLEEIADRIIE [RSPH3]	2.55 ± 0.33	2.77 ± 0.41	–	–
LRNNFQKQLLSNKELILDKVYTHP [ZC2HC1C]	2.76 ± 0.23	3.08 ± 0.25	–	–
VAASPAPAGERRIYRHRIPSTICF [ZNF511]	2.51 ± 0.18	2.48 ± 0.21	–	–
HRLLNMARNNNDPGRLTEALCLEV [RNF180]	3.89 ± 0.33	3.96 ± 0.28	–	–
TPVIAATPVPTITANVTSVPVPPA [BRD3]	4.53 ± 0.23	4.52 ± 0.047	–	–
SDLFSLAEEYEDSSTKPPKSRRKA [INTS3]	5.15 ± 0.34	5.33 ± 0.36	–	–
GVGGWRDYGVDPSQFSGTLMRTCE [PPTC7]	2.81 ± 0.36	3.28 ± 0.74	–	–
ISLMYGGSKRKSSFFSSPPYFED [SLA]	–	–	2.22 ± 0.22	2.27 ± 0.27
PMDVYETGIEYIVAQGPTNQGLNV [ADAMTSL2]	3.19 ± 0.68	3.54 ± 0.39	–	–
CGRRGIKVWSLTGQVAEDRFPESH [TLE6]	2.79 ± 0.27	3.11 ± 0.16	–	–
LQVIYWARDVFIITGVWVFFFNPC [GOSR1]	2.37 ± 0.7	2.57 ± 0.15	–	–
AVFMWPGKDSRWLPSLVLARLVFV [SLC29A1]	3.25 ± 0.68	2.67 ± 0.34	–	–
SLQERKQALYEYARRRFTERRAQE [AUP1]	4.53 ± 0.18	4.44 ± 0.21	–	–
FADEKNILHIMVKVVKGHRPELPP [RIPK4]	2.3 ± 0.32	2.36 ± 0.36	–	–
LGESKEHMESRMVTETEETQEKKA [SDE2]	5.51 ± 0.3	5.75 ± 0.12	–	–
LRIFVWLLLLYFMQVIAIVLYLMM [PHTF1]	2.99 ± 0.71	2.75 ± 0.55	–	–
VATWAIFVHRVGQPSIGGKLSPL [CTBP1-DT]	–	–	3.12 ± 0.21	2.92 ± 0.47
KERKLECLPPEPSPDDPESVKIIF [FAF2]	3.97 ± 0.22	4.04 ± 0.16	–	–
CWLNAFAEMLRFGDRMFYRDWWNS [SOAT2]	2.47 ± 0.4	2.91 ± 0.16	–	–
LTFMNEQGEYPPGTSTWQFNFKFN [CNOT7]	2.21 ± 0.074	2.39 ± 0.3	–	–
TGFGQGQGYTINVPWNQVGMRDAD [HDAC6]	2.89 ± 0.34	2.71 ± 0.28	–	–
LLEPEEGGRAYQALHCPTGTEYTC [TRIB3]	3.8 ± 0.31	4.1 ± 0.23	–	–
QYQTVRYDILPLSPVSRNRLAQVK [CTDNEP1]	3.02 ± 0.19	3.04 ± 0.29	–	–

Sequence	protein stability index [1]	protein stability index [2]	protein stability index [3]	protein stability index [4]
PYKWVVEAANLLIPAVGSSLSEAL [MYBL2]	2.88 ± 0.32	2.63 ± 0.67	–	–
WLVHRDPEGSVSGSQPNSGLALES [NFE2L1]	3.78 ± 0.31	3.97 ± 0.12	–	–
IKKKGWRRSSLVITTKIFWGGKAE [KCNAB2]	2.51 ± 0.55	2.75 ± 0.64	–	–
TAAVLGLICEGLYPASIVDEPTFK [ZBED1]	2.17 ± 0.26	2.19 ± 0.6	–	–
LLQLSDACRFQEDQEMARDLVERA [TCF25]	3.64 ± 0.34	3.77 ± 0.52	–	–
TPKSGEPRVPEEAAQDRPMSPGDC [YJU2B]	5.49 ± 0.24	5.42 ± 0.25	–	–
MTHQNVELFKELSINVMKQLIGSS [GMCL1]	2.35 ± 0.21	2.37 ± 0.57	–	–
GAEPGTYLTGTINGDPESVASLHW [ADAMTS4]	4.52 ± 0.87	3.67 ± 0.62	–	–
EGRGPVTPLHLDLTQLHRLSLESS [PLEKHN1]	3.4 ± 0.31	3.28 ± 0.22	–	–
STSEESWTDSEVDSSCSGQPIHLW [SPDEF]	4.21 ± 0.32	4.37 ± 0.25	–	–
CPEVKLKTTGLEEAAEAETAKDNG [SRPK2]	5.5 ± 0.27	5.49 ± 0.26	–	–
LTPGQSDSAKREVKQKISPYFKSN [FAN1]	3.92 ± 0.19	3.97 ± 0.26	–	–
PHVCSLCGKAFYKKYRLTEHERAH [ZNF649]	4.54 ± 0.24	4.66 ± 0.55	–	–
MCPPVSMRYEEEGMSYLYASWMYQ [TEX19]	2.3 ± 0.082	2.11 ± 0.22	–	–
KRLKERSLDTLLEAVESRGGVPGG [SMAD6]	4.32 ± 0.16	4.72 ± 0.12	–	–
CYYCQAYVHHQALLDVKNIAHQNK [HDAC6]	2.61 ± 0.33	2.33 ± 0.48	–	–
CGRAFSRKSLLVVHQRTHTGEKPH [ZNF649]	2.69 ± 0.26	2.64 ± 0.093	–	–
DAAGHGFCYCAGSHKRKRSSGSFC [GMCL1]	3.08 ± 0.22	3.35 ± 0.15	–	–
PVSMEMDNHMSDKDESCYDNAEAA [INTS3]	5.53 ± 0.36	5.53 ± 0.23	–	–
DDGIKVVKVTFNKQDSLVILTIMA [TMEM106C]	2.71 ± 1	3.11 ± 1	–	–
EIEQLLARLTGVNDKMAEYTNSAG [GOSR1]	2.29 ± 0.24	2.46 ± 0.45	–	–
TVKLLVEEKADVLARGPLNQTALH [RIPK4]	3.35 ± 0.58	3.4 ± 0.37	–	–
YDQQIWEKSIEQTQIKGLKNKPKK [PHTF1]	4.9 ± 0.093	5.17 ± 0.083	–	–

Sequence	protein stability index [1]	protein stability index [2]	protein stability index [3]	protein stability index [4]
GGQESSGLNLGKKISVPRDVMLEE [MYOZ1]	5.07 ± 0.27	5.1 ± 0.23	–	–
SCTTRLCQEEQLRSHENKLRQLTA [PSD2]	3.6 ± 0.22	3.79 ± 0.33	–	–
FDECGITDDQLLALLPSLSHCSQL [PRAME]	3.31 ± 0.15	3.56 ± 0.19	–	–
GQLYAMELQGFWMDIGQPKDFLTG [GMPPB]	2.01 ± 0.47	1.92 ± 0.13	–	–
RDPAAGAAPFRFVARPVRFPREHQ [ZNF511]	2.61 ± 0.72	3.23 ± 0.68	–	–
SGADFHKKDKCGRTPLHYAAANCH [ANKRD44]	3.42 ± 0.44	3.32 ± 0.27	–	–
TVEPRLLVADLLYWKDTRTSGVVF [RTN2]	2.97 ± 0.61	2.98 ± 0.6	–	–
EVQDLLEGCELPDLPSSLLLPEDM [SMG5]	4.5 ± 0.13	4.67 ± 0.2	–	–
SCNDSKLEFRSFWELIGEAAKSVK [S100A14]	2.18 ± 0.21	2.11 ± 0.52	–	–
EVRSKAEEVVSFVKKNVLVTGGFF [FUNDC2]	2.17 ± 0.37	2.25 ± 0.34	–	–
PQKSLFFHHIPSTCQRVNGIKVQN [SLC19A2]	2.61 ± 0.17	2.78 ± 0.27	–	–
WHTIAPMGTRRKHLGCAVYQDMIY [KLHL20]	–	1.93 ± 0.96	–	–
MELLTNNLKFITDPFVCRLRHLSP [OR4A15]	2.17 ± 0.22	2.58 ± 0.38	–	–
EESTPGQTNSETAVVALTQDQPSE [HDAC6]	5.49 ± 0.22	5.59 ± 0.34	–	–
YARTPTLDPDTMHARLRLSADRLT [TRIM14]	2.91 ± 0.17	3.27 ± 0.33	–	–
PVFNAMFEHEMEESKKNRVEINDL [SPOPL]	4.26 ± 0.32	4.69 ± 0.21	–	–
INKEELEGNSMRCGRKLAKDGEYC [GMCL1]	4.04 ± 0.36	4.15 ± 0.49	–	–
GRKFLQKHLNASNPTEPATIIFTA [TOR1AIP2]	2.35 ± 0.36	2.13 ± 0.32	–	–
LFQVVINPNFEVAESDYSNNIMKC [LOXL2]	2.09 ± 0.28	2.5 ± 0.27	–	–
MEEDKLLSAVPEEGDATRDPGPEP [PSD2]	5.54 ± 0.1	5.52 ± 0.16	–	–
MASVRIREAKEGDCGDILRLIREL [SAT2]	3.01 ± 0.17	3.23 ± 0.37	–	–
AGLEDEDVIIEVNGVNVLDEPYEK [PDZK1]	5.05 ± 0.35	5 ± 0.27	–	–
ENRTLQVLRAEHRGFQEENKALWE [CBY2]	4.37 ± 0.37	4.38 ± 0.17	–	–

Sequence	protein stability index [1]	protein stability index [2]	protein stability index [3]	protein stability index [4]
NLPIIAKMAAVSKASGRFGLLQGT [SEPHS2]	2.31 ± 0.18	2.25 ± 0.2	–	–
PGGPGAMTESLEASEFLEQSMSQT [RSPH3]	5.27 ± 0.28	5.16 ± 0.17	–	–
DVPVIPLDVVDNQTEKLDTNITEV [CASP6]	5.19 ± 0.067	5.14 ± 0.3	–	–
CLDTIDKSTMDAISAEGFTDIDID [BTBD1]	4.88 ± 0.19	4.82 ± 0.22	–	–
QPKEPQLTCDSAQKCHSIGETDEV [ZSCAN9]	5.43 ± 0.22	5.57 ± 0.21	–	–
VQAPSYGARPVSSAASVYAGAGGS [KRT18]	3.91 ± 0.081	3.82 ± 0.69	–	–
KENAAAPSPVRAPAPSPAKEERKT [PALM]	5.45 ± 0.24	5.53 ± 0.23	–	–
FRCLFEAEITQIQSHISDMSVILS [KRT71]	1.94 ± 0.14	2.34 ± 0.37	–	–
SLLLKKPLRVDLILENTSKVPAPK [NOP53]	2.81 ± 0.16	2.98 ± 0.15	–	–
PLRPLLGFRESDSAKPASLRLLQH [C6orf223]	3.41 ± 0.39	3.6 ± 0.27	–	–
PHDRSQGDWAPPPEGGMEQALAGA [ZNF263]	4.85 ± 0.26	4.83 ± 0.31	–	–
ANETYENNFDNLDFDLDLVPWESD [ATF6]	5.07 ± 0.24	4.82 ± 0.23	–	–
LACWTYGISVPSGLFVPSLLCGAA [CLCN6]	3.13 ± 0.1	3.43 ± 0.4	–	–
NSELVQSGKSEISELRRTMQALEI [KRT17]	3.94 ± 0.18	3.94 ± 0.42	–	–
AEVVKIRDSFSNQNTETKDTKSR [DLC1]	–	–	2.89 ± 0.56	3.47 ± 0.74
YGKDIVKACSLLDVAVHMPCLGHT [ZBED1]	2.14 ± 0.3	2.29 ± 0.33	–	–
EAFKNILTEIYRIVSQKQIADRAA [RAB11B]	2.81 ± 0.4	2.81 ± 0.49	–	–
REETPRMPSWASARDRQPSDFKTD [ELOA2]	4.96 ± 0.18	5.03 ± 0.38	–	–
GLAKCNGLSHSHDLSMDGLFGTIA [RIPK4]	2.47 ± 0.43	2.38 ± 0.13	–	–
NVPSSSLPAQPNRKPGMSSTARRS [CHMP4C]	4.9 ± 0.32	4.99 ± 0.13	–	–
